Experimental data from paper PMC3538848.

Experiments:
[1] = target: A/Japan/305/1957 (H2N2) hemagglutinin ectodomain (influenza A virus A/Japan/305/1957 (H2N2)); assay: negative-stain EM, single-particle 3D reconstruction
[2] = target: A/Hong Kong/1/1968 (H3N2) hemagglutinin ectodomain, biotinylated (influenza A virus A/Hong Kong/1/1968 (H3N2)); assay: ITC
[3] = target: A/Hong Kong/1/1968 (H3N2) hemagglutinin ectodomain, biotinylated (influenza A virus A/Hong Kong/1/1968 (H3N2)); assay: BLI
[4] = target: A/Hong Kong/1/1968 (H3N2) hemagglutinin ectodomain, biotinylated (influenza A virus A/Hong Kong/1/1968 (H3N2)); assay: BLI; remark: listed apart in the source
[5] = target: hemagglutinin of A/Virginia/670/1987 (H1N1) (influenza A virus A/Virginia/670/1987 (H1N1))
[6] = target: hemagglutinin of A/Brisbane/59/2007 (H1N1) (influenza A virus A/Brisbane/59/2007 (H1N1))
[7] = target: hemagglutinin of A/Guiyang/1/1957 (H2N2) (influenza A virus A/Guiyang/1/1957 (H2N2))
[8] = target: A/Vietnam/1203/2004 (H5N1) hemagglutinin ectodomain (influenza A virus A/Vietnam/1203/2004 (H5N1))
[9] = target: hemagglutinin of A/California/04/2009 (H1N1) (influenza A virus A/California/04/2009 (H1N1)) (UniProt C3W5S1)
[10] = target: hemagglutinin of A/Hong Kong/1073/1999 (H9N2) (influenza A virus A/Hong Kong/1073/1999 (H9N2))
[11] = target: hemagglutinin of A/Memphis/3/2008 (H1N1) (influenza A virus A/Memphis/3/2008 (H1N1))

Question: Which stoichiometry N [1] does the source give for C05 Fab (Lys-C digestion of IgG) here?
Answer: The stoichiometry N was 3.

Question: “C05 Fab (recombinant, for binding studies)” was tested. Which Kd [2] did it give?
Answer: Its Kd is 100 nM.

Question: And the Kd [3]?
Answer: Its Kd is 500 nM.

Question: And the Kd [4]?
Answer: Its Kd is 430 nM.

Question: How did the MIC, hemagglutination inhibition (HAI) [5] turn out when C05 IgG (antibody) was run?
Answer: The MIC, hemagglutination inhibition (HAI) was > 100 µg/mL.

Question: And the MIC, hemagglutination inhibition (HAI) [6]?
Answer: The MIC, hemagglutination inhibition (HAI) was 1.56 µg/mL.

Question: And the MIC, microneutralization (MN) [7]?
Answer: Its MIC, microneutralization (MN) is 18 µg/mL.

Question: And the MIC, hemagglutination inhibition (HAI) [8]?
Answer: The MIC, hemagglutination inhibition (HAI) was > 100 µg/mL.

Question: And the MIC, hemagglutination inhibition (HAI) [9]?
Answer: The MIC, hemagglutination inhibition (HAI) was > 100 µg/mL.

Question: What about the MIC, microneutralization (MN) [10] of the same substance?
Answer: The MIC, microneutralization (MN) was 90 µg/mL.

Question: And the MIC, hemagglutination inhibition (HAI) [11]?
Answer: The MIC, hemagglutination inhibition (HAI) was < 2.3 µg/mL.
